From PMC3954636

Target: hemagglutinin (HA) of human H7N9 influenza A virus A/Shanghai/2/2013 (influenza A virus A/Shanghai/2/2013 (H7N9))
Assay: crystal structure

“hemagglutinin (HA) of human H7N9 influenza A virus A/Shanghai/2/2013 (natural protein)” gave a stoichiometry N of 3.
